Results on two molecules are retold here after publication PMC2758704, “Human Papillomavirus-16 E7 Interacts with Glutathione S-Transferase P1 and Enhances Its Role in Cell Survival” (PLoS ONE, 2009).

Ends that are not written are not given here.

In the test the target is T1, N-6His-GSTP1 recombinant protein (human, UniProt P09211 1-210).
T1 construct: human GSTP1, ORF made by RT-PCR from HaCaT RNA, cloned through pDONR201 into pDEST17; The printed forward primer begins at the codons for Pro-Pro-Tyr-Thr (residue 2, without the first Met) and the reverse primer holds the stop codon; Gateway attB1 linker residues lie between the His tag and GSTP1; also called recombinant GSTP1; not shown: His6, N-terminal, kept
Briefly: peptide or protein array; PepSets: 30 rod-bound 12-mers of HPV-16 E7 with a 9 amino acid overlap; recombinant GSTP1 captured by each rod detected by an immunoenzyme assay with an anti-GSTP1 polyclonal antibody. The settings on record: both partners purified.

T1 sequence (P09211 whole entry): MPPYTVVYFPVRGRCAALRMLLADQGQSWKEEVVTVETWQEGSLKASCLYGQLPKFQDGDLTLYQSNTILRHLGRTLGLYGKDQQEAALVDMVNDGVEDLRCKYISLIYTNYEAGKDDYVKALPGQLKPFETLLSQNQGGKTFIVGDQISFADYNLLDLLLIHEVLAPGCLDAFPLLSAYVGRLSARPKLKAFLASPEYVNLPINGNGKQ

B1: HPV-16 E7 12-mer peptide aa 49–60 (peptide)
peptide: RAHYNIVTFCCK
modifications: cysteine pairing not given here; also: bound to a polypropylene rod
notes: residues 49-60 of the E7 oncoprotein of HPV-16; also called peptide 49–60; the 49–60 12-mer; source: synthetic peptide, on polypropylene rods (PepSets, Mimotopes)
In the case of B1, the binding result is “binds”.

B2: HPV-16 E7 C-terminal 12-mer peptide (30th rod, amino acids 88–99 with an added Gly) (peptide)
peptide: GIVCPICSQKPG
modifications: cysteine pairing not given here; also: bound to a polypropylene rod
notes: residues 88-98 (the C-terminus) of the E7 oncoprotein of HPV-16; a Gly added to the last C-terminal HPV-16 E7 amino acid to complete the 12-mer; The text names the region aa 89–98 in one place and 88–98 in others; also called C-terminal 88–98 peptide; C-terminal portion (aa 89–98); source: synthetic peptide, on polypropylene rods (PepSets, Mimotopes)
On to B2, for which the binding result is “binds”.
